Laboratory results from article PMC4430201 (Nature, 2014).

Biological target: the molecule itself
Test: crystal structure

B1: lantibiotic dehydratase NisB (enzyme, Lactococcus lactis)
chain: MIKSSFKAQPFLVRNTILCPNDKRSFTEYTQVIETVSKNKVFLEQLLLANPKLYDVMQKYNAGLLKKKRVKKLFESIYKYYKRSYLRSTPFGLFSETSIGVFSKSSQYKLMGKTTKGIRLDTQWLIRLVHKMEVDFSKKLSFTRNNANYKFGDRVFQVYTINSSELEEVNIKYTNVYQIISEFCENDYQKYEDICETVTLCYGDEYRELSEQYLGSLIVNHYLISNLQKDLLSDFSWNTFLTKVEAIDEDKKYIIPLKKVQKFIQEYSEIEIGEGIEKLKEIYQEMSQILENDNYIQIDLISDSEINFDVKQKQQLEHLAEFLGNTTKSVRRTYLDDYKDKFIEKYGVDQEVQITELFDSTFGIGAPYNYNHPRNDFYESEPSTLYYSEEEREKYLSMYVEAVKNHNVINLDDLESHYQKMDLEKKSELQGLELFLNLAKEYEKDIFILGDIVGNNNLGGASGRFSALSPELTSYHRTIVDSVERENENKEITSCEIVFLPENIRHANVMHTSIMRRKVLPFFTSTSHNEVLLTNIYIGIDEKEKFYARDISTQEVLKFYITSMYNKTLFSNELRFLYEISLDDKFGNLPWELIYRDFDYIPRLVFDEIVISPAKWKIWGRDVNSKMTIRELIQSKEIPKEFYIVNGDNKVYLSQKNPLDMEILESAIKKSSKRKDFIELQEYFEDENIINKGEKGRVADVVVPFIRTRALGNEGRAFIREKRVSVERREKLPFNEWLYLKLYISINRQNEFLLSYLPDIQKIVANLGGNLFFLRYTDPKPHIRLRIKCSDLFLAYGSILEILKRSRKNRIMSTFDISIYDQEVERYGGFDTLELSEAIFCADSKIIPNLLTLIKDTNNDWKVDDVSILVNYLYLKCFFQNDNKKILNFLNLVSTKKVKENVNEKIEHYLKLLKVNNLGDQIFYDKNFKELKHAIKNLFLKMIAQDFELQKVYSIIDSIIHVHNNRLIGIERDKEKLIYYTLQRLFVSEEYMK
modifications: methylated prior to crystallization (residues not stated)
stoichiometry N: 2
